T1: 6-Helix-Fd (HIV-1 gp41 (HXB2-like, printed sequence), stabilised)
T1 construct: also called post-fusion six-helix bundle mimic
T1 chain: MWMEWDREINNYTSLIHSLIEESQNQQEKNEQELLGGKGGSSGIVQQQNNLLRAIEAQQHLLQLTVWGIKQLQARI

B1: D5 bivalent scFv (biv-scFv) displayed on M13 phage (scFv, V domains shown)
VH: QVQLVQSGAEVRKPGASVKVSCKASGDTFSSYAISWVRQAPGQGLEWMGGIIPIFGTANYAQAFQGRVTITANESTSTAYMELSSLRSEDTAIYYCARDNPTLLGSDYWGAGTLVTVSS
VL: DIQMTQSPSTLSASIGDRVTITCRASEGIYHWLAWYQQKPGKAPKLLIYKASSLASGAPSRFSGSGSGTDFTLTISSLQPDDFATYYCQQYSNYPLTFGGGTKLEIK
B2: 25B8 bivalent scFv on phage (scFv, V domains shown)
VH: QVQLVQSGAEVRKPGASVKVSCKASGDTFSSYAISWVRQAPGQGLEWMGGIIPIFGTANYAQAFQGRVTITANESTSTAYMELSSLRSEDTAIYYCARDNPTLLGSDYWGAGTLVTVSS
VL: DIQMTQSPSTLSASIGDRVTITCRASENINRNLAWYQQKPGKAPKLLISRASRLASGAPSRFSGSGSGTDFTLTISSLQPDDFATYYCQQRYNYPYTFGGGTKLEIK
B3: 16F6 bivalent scFv on phage (scFv, V domains shown)
VH: QVQLVQSGAEVRKPGASVKVSCKASGDTFSSYAISWVRQAPGQGLEWMGGIIPIFGTANYAQAFQGRVTITANESTSTAYMELSSLRSEDTAIYYCARDNPTLLGSDYWGAGTLVTVSS
VL: DIQMTQSPSTLSASIGDRVTITCRASESISSILAWYQQKPGKAPKLLISNASRLASGAPSRFSGSGSGTDFTLTISSLQPDDFATYYCQQRSNYPFTFGGGTKLEIK
B4: 16G6 bivalent scFv on phage (scFv, V domains shown)
VH: QVQLVQSGAEVRKPGASVKVSCKASGDTFSSYAISWVRQAPGQGLEWMGGIIPIFGTANYAQAFQGRVTITANESTSTAYMELSSLRSEDTAIYYCARDNPTLLGSDYWGAGTLVTVSS
VL: DIQMTQSPSTLSASIGDRVTITCRASEGIRRSLAWYQQKPGKAPKLLISNASHLASGAPSRFSGSGSGTDFTLTISSLQPDDFATYYCQQYYNYPRTFGGGTKLEIK
B5: 25A5 bivalent scFv on phage (scFv, V domains shown)
VH: QVQLVQSGAEVRKPGASVKVSCKASGDTFSSYAISWVRQAPGQGLEWMGGIIPIFGTANYAQAFQGRVTITANESTSTAYMELSSLRSEDTAIYYCARDNPTLLGSDYWGAGTLVTVSS
VL: DIQMTQSPSTLSASIGDRVTITCRASESIRSHLAWYQQKPGKAPKLLISRASRLASGAPSRFSGSGSGTDFTLTISSLQPDDFATYYCQQSSDYPHTFGGGTKLEIK
B6: 16E3 bivalent scFv on phage (scFv, V domains shown)
VH: QVQLVQSGAEVRKPGASVKVSCKASGDTFSSYAISWVRQAPGQGLEWMGGIIPIFGTANYAQAFQGRVTITANESTSTAYMELSSLRSEDTAIYYCARDNPTLLGSDYWGAGTLVTVSS
VL: DIQMTQSPSTLSASIGDRVTITCRASEGIRYGLAWYQQKPGKAPKLLISRASRLASGAPSRFSGSGSGTDFTLTISSLQPDDFATYYCQQHYAYPHTFGGGTKLEIK
B7: 16F5 bivalent scFv on phage (scFv, V domains shown)
VH: QVQLVQSGAEVRKPGASVKVSCKASGDTFSSYAISWVRQAPGQGLEWMGGIIPIFGTANYAQAFQGRVTITANESTSTAYMELSSLRSEDTAIYYCARDNPTLLGSDYWGAGTLVTVSS
VL: DIQMTQSPSTLSASIGDRVTITCRASENINDHLAWYQQKPGKAPKLLISRAYRLASGAPSRFSGSGSGTDFTLTISSLQPDDFATYYCQQYADTPFTFGGGTKLEIK
B8: 25F12 bivalent scFv on phage (scFv, V domains shown)
VH: QVQLVQSGAEVRKPGASVKVSCKASGDTFSSYAISWVRQAPGQGLEWMGGIIPIFGTANYAQAFQGRVTITANESTSTAYMELSSLRSEDTAIYYCARDNPTLLGSDYWGAGTLVTVSS
VL: DIQMTQSPSTLSASIGDRVTITCRASEGIIGHLAWYQQKPGKAPKLLIYNASRLASGAPSRFSGSGSGTDFTLTISSLQPDDFATYYCQQRDDYPLTFGGGTKLEIK
B9: 16D10 bivalent scFv on phage (scFv, V domains shown)
VH: QVQLVQSGAEVRKPGASVKVSCKASGDTFSSYAISWVRQAPGQGLEWMGGIIPIFGTANYAQAFQGRVTITANESTSTAYMELSSLRSEDTAIYYCARDNPTLLGSDYWGAGTLVTVSS
VL: DIQMTQSPSTLSASIGDRVTITCRASENIRGSLAWYQQKPGKAPKLLIYRASRLASGAPSRFSGSGSGTDFTLTISSLQPDDFATYYCQQHSDYPHTFGGGTKLEIK
B10: 25B4 bivalent scFv on phage (scFv, V domains shown)
VH: QVQLVQSGAEVRKPGASVKVSCKASGDTFSSYAISWVRQAPGQGLEWMGGIIPIFGTANYAQAFQGRVTITANESTSTAYMELSSLRSEDTAIYYCARDNPTLLGSDYWGAGTLVTVSS
VL: DIQMTQSPSTLSASIGDRVTITCRASEGIRNGLAWYQQKPGKAPKLLISRASHLASGAPSRFSGSGSGTDFTLTISSLQPDDFATYYCQQYYAYPHTFGGGTKLEIK
B11: 25C4 bivalent scFv on phage (scFv, V domains shown)
VH: QVQLVQSGAEVRKPGASVKVSCKASGDTFSSYAISWVRQAPGQGLEWMGGIIPIFGTANYAQAFQGRVTITANESTSTAYMELSSLRSEDTAIYYCARDNPTLLGSDYWGAGTLVTVSS
VL: DIQMTQSPSTLSASIGDRVTITCRASESILGSLAWYQQKPGKAPKLLIYRASHLASGAPSRFSGSGSGTDFTLTISSLQPDDFATYYCQQYSNYPLTFGGGTKLEIK
B12: 16B7 bivalent scFv on phage (scFv, V domains shown)
VH: QVQLVQSGAEVRKPGASVKVSCKASGDTFSSYAISWVRQAPGQGLEWMGGIIPIFGTANYAQAFQGRVTITANESTSTAYMELSSLRSEDTAIYYCARDNPTLLGSDYWGAGTLVTVSS
VL: DIQMTQSPSTLSASIGDRVTITCRASENILRLLAWYQQKPGKAPKLLIYYASSLASGAPSRFSGSGSGTDFTLTISSLQPDDFATYYCQQRADYPYTFGGGTKLEIK
B13: 25E1 bivalent scFv on phage (scFv, V domains shown)
VH: QVQLVQSGAEVRKPGASVKVSCKASGDTFSSYAISWVRQAPGQGLEWMGGIIPIFGTANYAQAFQGRVTITANESTSTAYMELSSLRSEDTAIYYCARDNPTLLGSDYWGAGTLVTVSS
VL: DIQMTQSPSTLSASIGDRVTITCRASEDIGGSLAWYQQKPGKAPKLLISHAYSLASGAPSRFSGSGSGTDFTLTISSLQPDDFATYYCQQHATYPHTFGGGTKLEIK
B14: 16E8 bivalent scFv on phage (scFv, V domains shown)
VH: QVQLVQSGAEVRKPGASVKVSCKASGDTFSSYAISWVRQAPGQGLEWMGGIIPIFGTANYAQAFQGRVTITANESTSTAYMELSSLRSEDTAIYYCARDNPTLLGSDYWGAGTLVTVSS
VL: DIQMTQSPSTLSASIGDRVTITCRASESIYGSLAWYQQKPGKAPKLLISHASHLASGAPSRFSGSGSGTDFTLTISSLQPDDFATYYCQQNDTYPHTFGGGTKLEIK
B15: 25C5 bivalent scFv on phage (scFv, V domains shown)
VH: QVQLVQSGAEVRKPGASVKVSCKASGDTFSSYAISWVRQAPGQGLEWMGGIIPIFGTANYAQAFQGRVTITANESTSTAYMELSSLRSEDTAIYYCARDNPTLLGSDYWGAGTLVTVSS
VL: DIQMTQSPSTLSASIGDRVTITCRASEDIHDYLAWYQQKPGKAPKLLISRASRLASGAPSRFSGSGSGTDFTLTISSLQPDDFATYYCQQNDSYPYTFGGGTKLEIK
B16: 25A6 bivalent scFv on phage (scFv, V domains shown)
VH: QVQLVQSGAEVRKPGASVKVSCKASGDTFSSYAISWVRQAPGQGLEWMGGIIPIFGTANYAQAFQGRVTITANESTSTAYMELSSLRSEDTAIYYCARDNPTLLGSDYWGAGTLVTVSS
VL: DIQMTQSPSTLSASIGDRVTITCRASEGIYDGLAWYQQKPGKAPKLLISRAYYLASGAPSRFSGSGSGTDFTLTISSLQPDDFATYYCQQRANYPHTFGGGTKLEIK
B17: 2H10 bivalent scFv on phage (scFv, V domains shown)
VH: QVQLVQSGAEVRKPGASVKVSCKASGDTFSSYAISWVRQAPGQGLEWMGGIIPIFGTANYAQAFQGRVTITANESTSTAYMELSSLRSEDTAIYYCARDNPTLLGSDYWGAGTLVTVSS
VL: DIQMTQSPSTLSASIGDRVTITCRASEDIYRSLAWYQQKPGKAPKLLISRASRLASGAPSRFSGSGSGTDFTLTISSLQPDDFATYYCQQYSNYPLTFGGGTKLEIK
B18: 16E12 bivalent scFv on phage (scFv, V domains shown)
VH: QVQLVQSGAEVRKPGASVKVSCKASGDTFSSYAISWVRQAPGQGLEWMGGIIPIFGTANYAQAFQGRVTITANESTSTAYMELSSLRSEDTAIYYCARDNPTLLGSDYWGAGTLVTVSS
VL: DIQMTQSPSTLSASIGDRVTITCRASEGIRRSLAWYQQKPGKAPKLLISNASHLASGAPSRFSGSGSGTDFTLTISSLQPDDFATYYCQQYYNYPRTFGGGTKLEIK

What follows are binders tested against T2, 5-Helix (HIV-1 group M subtype B, HXB2 (gp41 …, stabilised)) (assay: ELISA; competitive phage ELISA, on-phage bivalent scFv: binding to immobilised 5-Helix inhibited by free 5-Helix or free 6-Helix-Fd (concentrations for the trimer); apparent). Details: one partner purified.
T2 construct: also called designed protein based on HIV-1 gp41

First: B1
Second: B2
The IC50 of the first is 31-fold lower: 0.1 nM for the first, 3.1 nM for the second.

Biological target: T1, 6-Helix-Fd
Experiment: as above
Details: one partner purified

Going from B1 to B2, the IC50 rises from 11 nM to ~100 nM (9.1-fold). The first is the more potent here.

What follows are binders tested against T2, 5-Helix (assay: ELISA). Details: one partner purified.

Going from B3 to B4, the “F_competitive (signal with 40 nM free 5-Helix / signal without)” value falls from 0.8 fraction to 0.3 fraction.

Compared with B5, B6 is higher in “F_competitive (signal with 40 nM free 5-Helix / signal without)” value: 0.1 fraction for the first, 0.7 fraction for the second.

B7 and B8 are the same in “F_competitive (signal with 40 nM free 5-Helix / signal without)” value: 0.2 fraction for the first, 0.2 fraction for the second.

Going from B9 to B10, the “F_competitive (signal with 40 nM free 5-Helix / signal without)” value falls from 0.7 fraction to 0.1 fraction.

First: B2
Second: B11
The “F_competitive (signal with 40 nM free 5-Helix / signal without)” value of the first is higher: 0.2 fraction for the first, 0.1 fraction for the second.

Going from B12 to B13, the “F_competitive (signal with 40 nM free 5-Helix / signal without)” value falls from 0.6 fraction to 0.1 fraction.

Compared with B14, B15 is higher in “F_competitive (signal with 40 nM free 5-Helix / signal without)” value: 0.4 fraction for the first, 0.5 fraction for the second.

B16 and B17 are the same in “F_competitive (signal with 40 nM free 5-Helix / signal without)” value: 0.1 fraction for the first, 0.1 fraction for the second.

With B18 the “F_competitive (signal with 40 nM free 5-Helix / signal without)” value was 0.1 fraction.

Compared with B3, B4 is lower in “phage ELISA signal OD450” value: 3 OD450 for the first, 2.3 OD450 for the second.

First: B5
Second: B6
The “phage ELISA signal OD450” value of the first is higher: 3.5 OD450 for the first, 3 OD450 for the second.

Going from B7 to B8, the “phage ELISA signal OD450” value falls from 3 OD450 to 2.7 OD450.

First: B9
Second: B10
The “phage ELISA signal OD450” value of the first is higher: 3 OD450 for the first, 2.9 OD450 for the second.

Going from B2 to B11, the “phage ELISA signal OD450” value falls from 2.9 OD450 to 2.5 OD450.

B12 and B13 are the same in “phage ELISA signal OD450” value: 3 OD450 for the first, 3 OD450 for the second.

Going from B14 to B15, the “phage ELISA signal OD450” value falls from 3 OD450 to 0.7 OD450.

Compared with B16, B17 is lower in “phage ELISA signal OD450” value: 3.1 OD450 for the first, 1.9 OD450 for the second.

For B18, the “phage ELISA signal OD450” value was 3.1 OD450.

Reference: paper PMC3626704 (BMC Biochemistry, 2013)
